Molecular target: T1, FBN1^E2cbEGF1 (fibrillin-1 EGF2-EGF3-Hyb1-cbEGF1) (human, UniProt P35555 113-287, C204 replaced with a serine)
T1 construct: fibrillin-1 (FBN1), human, domains EGF2-EGF3-Hyb1-cbEGF1; His6 tag, Ser-Ala spacer and factor Xa site (Ile-Glu-Gly-Arg) at the N-terminus, tag removed with factor Xa; 15N-labelled in some NMR titrations; Construct described in Robertson et al., 2013b; also called FBN1 EGF2-EGF3-Hyb1-cbEGF1; four-domain FBN1 fragment; not shown: His6, N-terminal, cleaved
T1 sequence (P35555 other isoform, or with tags, fused parts or gaps C204 replaced with a serine | C204 replaced with a serine): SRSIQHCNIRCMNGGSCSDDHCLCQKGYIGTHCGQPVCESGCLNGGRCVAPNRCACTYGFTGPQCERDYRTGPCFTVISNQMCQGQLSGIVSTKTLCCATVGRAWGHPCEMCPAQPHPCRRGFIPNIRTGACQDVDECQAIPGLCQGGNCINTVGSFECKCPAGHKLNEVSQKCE
Assay: SPR; Biacore T100; FBN1 fragments amine-coupled to a CM5 chip (1000 RU each flow cell), LTBP1 fragments as analytes; 50 mM Tris pH 7.5, 150 mM NaCl, 0.05% Tween 20, 2 mM CaCl2; 25°C; multi-cycle and single-cycle; Kd estimated from Scatchard plots
Settings: both partners purified

Row | Binder | Kd [µM]
1 | LTBP1^E3cbEGF15 (LTBP1 EGF3-cbEGF15) (domain or fragment) QAEECGILNGCENGRCVRVQEGYTCDCFDGYHLDTAKMTCVDVNECDELNNRMSLCKNAKCINTDGSYKCLCLPGYVPSDKPNYCT | ~100
2 | LTBP1^TB3E3 (LTBP1 TB3-EGF3) (domain or fragment) IRPAESNEQIEETDVYQDLCWEHLSDEYVCSRPLVGKQTTYTECCCLYGEAWGMQCALCPLKDSDDYAQLCNIPVTGRRQPYGRDALVDFSEQYTPEADPYFIQDRFLNSFEELQAEECGILNGCENGRCVRVQEGYTCDCFDGYHLDTAKMTCV | 0.5 to 1
3 | LTBP1^cbEGF14TB3 (LTBP1 cbEGF14-TB3) (domain or fragment, Ca2+-bound cbEGF14; disulfide-bonded (refolded); limits run from the start of cbEGF14 to just after the last Cys of TB3 by convention, exact construct ends not given; vector-derived N-terminal …) MDECQDPSSCIDGQCVNTEGSYNCFCTHPMVLDASEKRCIRPAESNEQIEETDVYQDLCWEHLSDEYVCSRPLVGKQTTYTECCCLYGEAWGMQCALCPLKDSDDYAQLCNIPVTGRRQPY | ~300
